Experimental data reported in patent publication US20260275311, “CRISPR NUCLEASE POLYPEPTIDES AND GENE EDITING SYSTEMS COMPRISING SUCH” (ARBOR BIOTECHNOLOGIES, INC., published 2026).

T1: Nuclease K
T1 chain: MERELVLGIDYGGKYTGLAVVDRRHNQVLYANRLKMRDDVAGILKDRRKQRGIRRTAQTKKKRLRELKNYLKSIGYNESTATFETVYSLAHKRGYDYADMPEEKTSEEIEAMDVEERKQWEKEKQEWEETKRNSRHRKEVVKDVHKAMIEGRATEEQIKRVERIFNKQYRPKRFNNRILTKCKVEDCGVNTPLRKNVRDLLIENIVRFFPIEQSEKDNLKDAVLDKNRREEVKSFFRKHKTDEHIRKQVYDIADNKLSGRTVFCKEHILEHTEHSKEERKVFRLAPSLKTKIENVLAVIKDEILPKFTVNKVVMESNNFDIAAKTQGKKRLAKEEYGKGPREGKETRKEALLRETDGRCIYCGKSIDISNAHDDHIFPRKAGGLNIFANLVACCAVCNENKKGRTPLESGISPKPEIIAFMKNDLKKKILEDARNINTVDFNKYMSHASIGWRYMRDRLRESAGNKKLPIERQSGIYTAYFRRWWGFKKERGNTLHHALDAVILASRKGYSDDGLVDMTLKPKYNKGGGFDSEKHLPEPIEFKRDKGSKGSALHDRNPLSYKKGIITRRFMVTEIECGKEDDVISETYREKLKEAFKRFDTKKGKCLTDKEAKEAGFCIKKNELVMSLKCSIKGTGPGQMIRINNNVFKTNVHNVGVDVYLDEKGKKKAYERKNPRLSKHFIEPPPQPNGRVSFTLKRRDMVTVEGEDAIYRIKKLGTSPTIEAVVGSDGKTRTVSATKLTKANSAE


Key:
Nuclease K [1] = biological target: T1, Nuclease K; experiment: cell_activity; PAM NGG (GGG); HEK293T; conditions: tags: N-terminal SV40 NLS, C-terminal nucleoplasmin NLS
Nuclease K [2] = biological target: T1, Nuclease K; experiment: cell_activity; PAM NGG (AGG); HEK293T; row labelled Reference SEQ ID NO: 1, text says Nuclease K; conditions: tags: N-terminal SV40 NLS, C-terminal nucleoplasmin NLS

Binder | activity (Nuclease K [1]) [indel ratio] | activity (Nuclease K [2]) [indel ratio]
Nuclease K EMX1-T7 guide ; EMX1-T7 target (ssRNA ; dsDNA) RNA: CUUUAGCAAGGGACUAUUCAGUUACAGUUAAGGCUCUGAAAAGAGCCUUAAUUGUAAAACGCCUAUACAGUGAAGGGAUAUACGCUUGGGUUUGUCCAGCCUGAGCCUCUAUGCCAGAAAUGGCGCCUUCAUCGUGGGUUAGGACAUUUAAAUUUAAAAACUAUUCAGCACUGUUUGCUCUUGUCAGCUUGGUGGCAGA DNA 1: CTTTAGCAAGGGACTATTCA DNA 2: TGAATAGTCCCTTGCTAAAG | 0.011 | 
Nuclease K AAVS1-T3 guide ; AAVS1-T3 target (ssRNA ; dsDNA) RNA: UUGUGAGAAUGGUGCGUCCUGUUACAGUUAAGGCUCUGAAAAGAGCCUUAAUUGUAAAACGCCUAUACAGUGAAGGGAUAUACGCUUGGGUUUGUCCAGCCUGAGCCUCUAUGCCAGAAAUGGCGCCUUCAUCGUGGGUUAGGACAUUUAAAUUUAAAAACUAUUCAGCACUGUUUGCUCUUGUCAGCUUGGUGGCAGA DNA 1: TTGTGAGAATGGTGCGTCCT DNA 2: AGGACGCACCATTCTCACAA |  | 0.037
